# Laboratory results reported in paper PMC5127646, “Structural basis for the recognition of spliceosomal SmN/B/B’ proteins by the RBM5 OCRE domain in splicing regulation” (eLife, 2016).
# B1: RBM5 OCRE domain (residues 451-511), wild type (domain or fragment, human)
# chain: GAMGTKYAVPDTSTYQYDESSGYYYDPTTGLYYDPNSQYYYNSLTQQYLYWDGEKETYVPAAES
# notes: tripeptide left by the TEV cleavage; 15N- or 13C,15N-labelled in the NMR experiments; also called RBM5_OCRE WT; source: E. coli BL21, purified (Ni-NTA, TEV cleavage, gel filtration); not shown: His6, N-terminal, cleaved
# Target: B1
# Test: NMR structure; solution structure; 2 mM ^13C,^15N-labeled OCRE with 14 mM unlabeled SmN 219-229 peptide, 298 K; 109 intermolecular NOE restraints
# Conditions: both partners purified
row,Binder,binding result
1,"GMRPPPPGIRG (source: synthetic peptide (Peptide Specialty Laboratory, Heidelberg)) [SmN peptide, residues 219-229 (GMRPPPPGIRG)]",binds

# Target: T1, SmB C-terminal region, residues 167-231, wild type (human, UniProt P14678-2 167-231)
# T1 construct: source: E. coli BL21, purified (Ni-NTA, TEV cleavage, gel filtration); not shown: His6, N-terminal, cleaved; GST, N-terminal, cleaved
# Test: ITC; Sm tail constructs with wild type OCRE; SmN constructs (1 mM) titrated into OCRE (100 μM); ITC200, 24°C, 20 mM sodium phosphate pH 6.5, 50 mM NaCl; duplicates
# Conditions: both partners purified
row,Kd [µM],Binder
1,21,B1

# Target: B1
# Test: as above
# Conditions: both partners purified
row,Kd [µM],Binder
1,195,"SmN residues 167-196 (domain or fragment, source: E. coli BL21, purified (Ni-NTA, TEV cleavage, gel filtration); not shown: His6, N-terminal, cleaved; GST, N-terminal, cleaved) not shown"
2,103,SmN 167-240 4P/3P→4A/3A (domain or fragment) not shown
3,192,SmN 167-240 4P/3P→4G/3G (domain or fragment) not shown
4,29,SmN 167-240 4P→4A (domain or fragment) not shown

# Target: T2, SmN C-terminal tail, residues 167-240 (complete proline-rich region), wild type (human, UniProt P63162 167-240)
# T2 construct: The ITC methods print 168-240 for this construct; also called SmN_167-240 WT; source: E. coli BL21, purified (Ni-NTA, TEV cleavage, gel filtration); not shown: His6, N-terminal, cleaved; GST, N-terminal, cleaved
# Test: as above
# Conditions: both partners purified
row,Kd [µM],Binder
1,41,B1

# Target: T2, SmN C-terminal tail, residues 167-240 …
# Test: ITC; purified OCRE mutants (2 mM) titrated to wild type SmN (29.5 μM); ITC200, 24°C, 20 mM sodium phosphate pH 6.5, 50 mM NaCl; duplicates
# Conditions: both partners purified
row,Kd [µM],Binder
1,172,"RBM5 OCRE domain (451-511) Y495A (domain or fragment, human, tripeptide left by the TEV cleavage; RBM5, human, OCRE domain, residues 451-511; source: E. coli BL21, purified (Ni-NTA, TEV cleavage, gel filtration); not shown: His6, N-terminal, cleaved) GAMGTKYAVPDTSTYQYDESSGYYYDPTTGLYYDPNSQYYYNSLTQQALYWDGEKETYVPAAES"
2,106,"RBM5 OCRE domain (451-511) Y454A/D458K (domain or fragment, human, tripeptide left by the TEV cleavage; RBM5, human, OCRE domain, residues 451-511; source: E. coli BL21, purified (Ni-NTA, TEV cleavage, gel filtration); not shown: His6, N-terminal, cleaved) GAMGTKAAVPKTSTYQYDESSGYYYDPTTGLYYDPNSQYYYNSLTQQYLYWDGEKETYVPAAES"
3,48,"RBM5 OCRE domain (451-511) E501K (domain or fragment, human, tripeptide left by the TEV cleavage; RBM5, human, OCRE domain, residues 451-511; source: E. coli BL21, purified (Ni-NTA, TEV cleavage, gel filtration); not shown: His6, N-terminal, cleaved) GAMGTKYAVPDTSTYQYDESSGYYYDPTTGLYYDPNSQYYYNSLTQQYLYWDGKKETYVPAAES"
4,87,"RBM5 OCRE domain (451-511) Y495F (domain or fragment, human, tripeptide left by the TEV cleavage; RBM5, human, OCRE domain, residues 451-511; source: E. coli BL21, purified (Ni-NTA, TEV cleavage, gel filtration); not shown: His6, N-terminal, cleaved) GAMGTKYAVPDTSTYQYDESSGYYYDPTTGLYYDPNSQYYYNSLTQQFLYWDGEKETYVPAAES"
5,220,"RBM5 OCRE domain (451-511) Y488A (domain or fragment, human, tripeptide left by the TEV cleavage; RBM5, human, OCRE domain, residues 451-511; source: E. coli BL21, purified (Ni-NTA, TEV cleavage, gel filtration); not shown: His6, N-terminal, cleaved) GAMGTKYAVPDTSTYQYDESSGYYYDPTTGLYYDPNSQYYANSLTQQYLYWDGEKETYVPAAES"
6,145,"RBM5 OCRE domain (451-511) Y486A (domain or fragment, human, tripeptide left by the TEV cleavage; RBM5, human, OCRE domain, residues 451-511; source: E. coli BL21, purified (Ni-NTA, TEV cleavage, gel filtration); not shown: His6, N-terminal, cleaved) GAMGTKYAVPDTSTYQYDESSGYYYDPTTGLYYDPNSQAYYNSLTQQYLYWDGEKETYVPAAES"
7,186,"RBM5 OCRE domain (451-511) Y495T (domain or fragment, human, tripeptide left by the TEV cleavage; RBM5, human, OCRE domain, residues 451-511; source: E. coli BL21, purified (Ni-NTA, TEV cleavage, gel filtration); not shown: His6, N-terminal, cleaved) GAMGTKYAVPDTSTYQYDESSGYYYDPTTGLYYDPNSQYYYNSLTQQTLYWDGEKETYVPAAES"
8,35,"RBM5 OCRE domain (451-511) Y495W (domain or fragment, human, tripeptide left by the TEV cleavage; RBM5, human, OCRE domain, residues 451-511; source: E. coli BL21, purified (Ni-NTA, TEV cleavage, gel filtration); not shown: His6, N-terminal, cleaved) GAMGTKYAVPDTSTYQYDESSGYYYDPTTGLYYDPNSQYYYNSLTQQWLYWDGEKETYVPAAES"
9,111,"RBM5 OCRE domain (451-511) Y479A (domain or fragment, human, tripeptide left by the TEV cleavage; RBM5, human, OCRE domain, residues 451-511; source: E. coli BL21, purified (Ni-NTA, TEV cleavage, gel filtration); not shown: His6, N-terminal, cleaved) GAMGTKYAVPDTSTYQYDESSGYYYDPTTGLAYDPNSQYYYNSLTQQYLYWDGEKETYVPAAES"
